This passage reports protein production results from a protein production outcome set (Wang et al. 2014).

A short description of the data set: label from the status in PepcDB records.

For “MSTDTSGVGVREIDAGALPTRYARGWHCLGVAKDYLEGKPHGVEAFGTKLVVFADSHGDLKVLDGYCRHMGGDLSEGTVKGDEVACPFHDWRWGGDGRCKLVPYARRTPRMARTRSWTTDVRSGLLFVWHDHEGNPPDPAVRIPEIPEAASDEWTDWRWNRILIEGSNCRDIIDNVTDMAHFFYIHFGLPTYFKNVFEGHIASQYLHNVGRPDVDDLGTSYGEAHLDSEASYFGPSFMINWLHNRYGNYKSESILINCHYPVTQNSFVLQWGVIVEKPKGMSEEMTDKLSRVFTEGVSKGFLQDVEIWKHKTRIDNPLLVEEDGAVYQLRRWYEQFYVDVADIKPEMVERFEIEVDTKRANEFWNAEVEKNLKSREVSDDVPAEQH”, the protein production entry is “not failed”.

Take “MSTFAFNLGGEFDKSFLSTPKAYGDVIKALPQNASKIELDYASVYDYDTDGCYATAAISPDGTTNPGLSLGGSPESVCRDVNRLENSNTYSRAKSNNGWTAIMYASYFEKDQSTSGPVALGHRHDWEHTIVWVKDSQVQYVTYSAHGNWYTNPRSNVRFDGNHPKIVYHKDGGSTHAFRLANSNDEPPENYYHQWLQLPMVGWNGYPSPNIREKLMTTNFGDATLEIKDGRFEKALANAKPPINFDPYAPELEDGGTYQIVSILNNSSVVDLNQADGNVQLWQNGNANNQKWKLVYDSNKSAYQIKNIANQNLVLTWNNLNGSNNVVATTNQNKEEQYWIPTEAGNGYYYVRNKKDQNKVLDVSGYGTANGTNVTVYNFHGGNNQTFQLSNVTGTLTREVESLYKAQPGQTSRSSNNFSLEHLAAGTKVRVVLEGAGATSLSFKIARDKSGTDPVIWSNVRDGSILTIPSGDDRKNLYIAGPPSGYTSNGTFKVKFYALPN”: the protein production result is recorded as “failed”.

For “MSTGATIVIDLGKTLSKVSLWDLDGRMLDRQVRPSIPLEIDGIRRLDAPDTGRWLLDVLSRYADHPVTTIVPVGHGAGIAALTDGRLAFPPLDYEQSIPEAVMADYRSQRDPFARTGSPALPDGLNIGSQLWWLDQLHPDVMANATLLPWAQYWAWFLTGRAVSEVTSLGCHSDLWDPQDGDFSPMAKRLGWAARFAPIVRAGDTVGALLPAIAERTGLSPDVQVLAGLHDSNAALLAARGFAEIADNEATVLSTGTWFIAMRLPATPVDTATLPEARDCLVNVDVHGRPVPSARFMGGREIETLIEIDTRRVDIKPDQPALLAAVPEVLRHGRMILPTLMRGFGPYPHGRFAWINRPEDWFERRAAACLYAALVADTALDLIGSTGRILVEGRFAEADVFVRALASLRPDCAVYTANAHNDVSFGALRLIDPGLRPQGELVRIEPLDTGSWADLDTYRNRWQAEVEAAKVEPITLEHHHHHH”, the protein production result is given as “not failed”.

On to “MSTLISTPRTKMSPIRAEDWALFQRLHIEPSVISLCFDKPDERVLRDKFESRLASWTPECDHWLCLTIFDANTQQPIGITGFVLEEDKAEVGYLLLPEFHGQQFGTETLNALLHWAETTHDILRFSATVTEGNVASERVLTKCGFELSQVIPDAYQIGGKHYADKIYSRQK”, for which the protein production entry is “failed”.

On to “MSTNEITKRLPNLTSRRALLLYSLPVLVAIGVSHSLKESSLTKTIALNLPESQVVERILDATTAEVVTPPNFEYQIQAGDNLSTIFSQLGFGYSSLMKVMETDLNYLALDTLKPGNTLRFWRNDATGELEKMELQFSIADKVVYQLNSDGGYDFTDISIPGVWRQEPLVGVIQGSFSSSANRLGLSSAEISQVVSLLKEQVNFGRDLRAGDRFEVVRRSQTINGVSTGKNEIEAIKIYNRGREITAYLHTDGQFYNAKGESLQRAFQRYPVSRSWRISSGFNPNRLHPVTGRVAP”, for which the protein production entry is “failed”.

For the sequence “MSTPIDTYWRLRLTEVAESLRANNFAVSLVDSCEEAGRVFLDDLLPASGASSVSFGGSMTLVKCGVPEALRQRADLQLLDTFDKNLSAAEMYERRRQSLLVDMFLTGTNAVTMDGKLINLDMIGNRVGAINFGPRNVVLFVGRNKVVDTVEDGMRRIKEYASPVNAIRLDKKTPCKKTAQCMDCKSPDRICNVWTITEKCFPSGRVHVILINEDAGY”, the protein production entry was “failed”.

With “MSTPRQILAAIFDMDGLLIDSEPLWDRAELDVMASLGVDISRRNELPDTLGLRIDMVVDLWYARQPWNGPSRQEVVEQVIARAISLVEETRPLLPGVREAVALCKEQGLLVGLASASPLHMLEKVLTMFDLRDSFDALASAEKLPYSKPHPQVYLDCAAKLGVDPLTCVALEDSVNGMIASKAARMRSIVVPAPEAQNDPRFVLANVKLSSLTELTAKDLLG”, the protein production entry is “not failed”.

In the case of “MSTPYRPAMHHAWRLLPLGMAVASPLLAAEPLNLDAVNVTGFSEQESASDYRAGRASIYGLDQALLLDTPASVSVFSEALIKDRQAKLLSDVLRNDASVGEGYAPVGYYENFVVRGFSLNAANSYRINGRSIAGEQNVALENKQQVELLKGLSGLQSGVSEPGGVINYQTKRAQD”, the protein production result is given as “failed”.

Regarding “MSTQENVQIVKDFFAAMGRGDKKGLLAVSAEDIEWIIPGEWPLAGTHRGHAALAALLQKASEMVEISYPEPPEFVAQGERVLVVGFATGRVKSTNRTFEDDWVFAITVRKSKVTSIREYIDTLALARATNFNAT”, the protein production entry was “not failed”.

On to “MSTRPERERASTSTDAVLQATVALSAGHKPAFRGFVKDPPRARAHAAAMFVSNAREAEPFVAPDLSEIRVLVDRATVGVASVSLAHATVAAGAETVWHRLQATDEIYFVLSGRGLVSVGDESGEVGPGDAVWIPAGVPQKIRALGSVPLTFLCAWGPAYLPERDQRMGEAAVIGAWPLEHHHHHH”, for which the protein production entry was “not failed”.

“MSTVEKIQTFIILFAVTCGIVLGQFHLIHMYSEQFIVPFLFFMLYGLFLSIPLKEIKNGFRNLKFAGTSLTINFLWTPLLAWGLGALFLSDHPALWVGFIMLMVTPCTDWYLIFTEIAKGNVALSTAILPVNLILQVLLLPIYLFLFAGVMKTVAVSVLVESIVIVIVLPFLLAHATKFIMNKLKKAETLENKLIPFFSSAQIVFLSLAIVAMFASQGKYLLQNMNVVLLLLIPVLLFFIINFVLGQFIGRVMRLSYKDTVSLNLTTLARNSPVALAIAVTAFPNEPLIALALVIGPLIELPVLACVSQVLLLIKKKKQYT”: the protein production result was “failed”.

Regarding “MSTVNNHRVVIRRRKVRRGGHHGGSWKIAYADFITAMMAFFLVMWLISIVPREELKGIAEYFRMPLRVALTGGPSSSAETSAIPGGGQDPLRSQGDVRRAEGNRVEAQPMGDAERRDRHRLERLKVRLENLIEESPVLKNFRPQLLIDMTTEGLRIQIVDNQNRPMFATGSADVQPYMRDILRELGPVLNDLPNKISIAGHTDASQYARGERAYSNWELSADRANASRQELVAGGMHEGKVLRIQGLASSMSLVKDDPFAAVNRRISLVVLNASTQRRIENENAAAADVNARDAQGVGAALAGQLAASGSDGGAR”, the protein production result is given as “failed”.

For “MSVCTAHHPMTSPLPPFPLQQRLSRRTLLRFITHTAGIALLNPIGLAQSAPRAGKPPASSSDFISRRPPQAQRRFVSAAVEQQLIHIKAKIADPELAWLFENCYPNTLDTTVSTGTRNGKPDTFIITGDIQALWLRDSAAQVQAYVPLARHDPALRRLFHGLIQRHAACIRLDPYANAFLPDGVSHPLKWSVNDVTQMQPGIGERKWEIDSLCYPIRLAHAYWRASDDIAPFDEDWRQAMHIVLRTFGEQQRLQTPGPYTFQRPALRATETLMLEGYGAPTRPNGMLHSMFRPSDDACTYPLSVPENLFAVITLRQLAAMSEAIHHDAAFASQCRSLAHEIAQATQQFGLMHDADNHPFWAYEVDGYGNQLFMDDANAPSLLSLAYLGCCTSTDPVFLRTRDLAWSARNPYFCQGRAAVGVGSPHTGRHTIWPMSLIHYALSSHDDTQIQHCLHWLKTTHAGTGFMHEAFHQDDPSTFTRSWFAWANSLFGELIVDLAQRKPHLLGVNRSAALLHG”, the protein production result is on record as “failed”.

For “MSVDIVHLADSELGKIVALLATSITIVPLFKRLGLGSVLGYLVAGCLIGPSVLGLFQNPQSIVHMAELGVVMFLFIIGLEMHPELLWSMRKAIFGRGFLQVLTCGTLLTFAGIHLIGLTTAVAFVVGAGFTLSSTAIVMQVLEDKGISSAPKGQRIVSTLLFEDLAIVPLLASMTFLAPSTEGATTGINSAAISIAVIGIIILVASSKWIMNPLFRMISKAKVREMMTAAALLVVLGAALLMELSGLSMAMGAFVAGVMLSESSFRHQLEADIEPFRGLLLGLFFMGVGMSLDLKFVFDDLFLLLSLVVILVLGKAISVYVIGLLTLLSHREALMRMSIMSHGGEFAFVLFSAAAAVGILDEDQQATFTAAVIISMLLSPLVVLMVQRIMTRKAKPEAPSMAGIEVAEDLENSVIVIGFGRFSQIVCQILLARGITVTVIDANTDRIRAAARFGFKVYYGDGTRLDVLRASGLAKADCVVLGINDPTRSASIVEQIKHEFPLMPIFARTYDRYSAIQLTKLHVDFQIRETFESALVLSKATMMKLGIDEVEALEVIESVRVLDKERFKEELIYGTSAELIRKYFTPKPLVKPQQPAEALNEYAAEILAETDESQHCQDNLNKKADV”, the protein production result is recorded as “failed”.

Turning to “MSVEPTSVDPSPDKSAPANASGRADASARPSTGESARPSGGETPEVLRPHAEVTFAAELAALAAQDDRPRPVRWRLSPWAVATYLLGGTLPDGTVITPKYVGPRRIVEVAVTTLATDRALLLLGVPGTAKTWVSEHLAAAVSGDSTLLVQGTAGTPEEAIRYGWNYAQLLAHGPSRDALVPSPVMRAMADGMTARVEELTRVPADVQDTLITILSEKTLPIPELGQEVQAVRGFNLIATANDRDRGVNELSSALRRRFNTVVLPLPESADAEVDIVSRRVDQIGRSLDLPAVPDGVDEIRRVVTVFRELRDGVTTDGRTKLKSPSGTLSTAEAISVVTNGLALAAHFGDGVLRASDVAAGILGAVVRDPAADRVIWQEYLEAVVRERDGWMDFYRACREVSALEHHHHHH”, the protein production result is listed as “not failed”.

In the case of “MSVFMDLNIINSSDKNRLKHIIETAAHLGYSTVAINYVVEPLQKKQEIPNPQSISDLFDKFPVVQGKSSPIKVLNRLTIVASDASHFRPTNEYKKFDLVAVYPKTEKLFHAACMTFDVDIICIAVTEKQPFHFKRAPVNGAIDRGIFFETCYAAAIRDSITRRYTIANAICLMEICKGKNVIVSSGAERQLELRGPYDIANLGLVFSLSEGDAKAAVSTNCRSVLLHGETRATASGVIHTMKKPQILQKEEEETPAAKKARTELA”, the protein production result is “failed”.

As to “MSVHHAERFLPFSDLQMFTLVADVERYPQFVPWWIAARVIDSRPAPAGDGPDAKIYRTDQVIGMGPVRLRFTSRTLLVSPRRISVASQGGGPVRDLSLDWWFDAQPGGCLTRLDMTLDLGSRSLENLLAGMSSEAAVKLVDAFERRAHALYQGG”, the protein production entry was “failed”.

Turning to “MSVIKLKSKLKYCHYAYDDEGYVIHMLTSNERTFFTNAYIIETKNSIVVVDTLMVNSDAILLRQYMDNINKPLIAVIITHGHPDHYNGTEIITGFKEVPIISTKGIRDCIQDTVDSKEVKWKPYFGQDWPEHKILPNQLVIDSEVVNLDGLDYSFRDLGAAESSSDLFFTLGEKRSVIFVGDVVFNNMHGFMNDGNSAQWLKVLQKLLTEIADVKLLFTGHGDPGDTHQLVQRQIDYISHYRSNLLAIIRGNQLLNDTQKQSFEQLMMANYPEFQLSSFIKAGIDAVSQELIVEQNDKP”, the protein production entry is on record as “failed”.

In the case of “MSVKSVLVFLSVSGSTMPMLILESDSIAEVKLRIQTCNGFRVRRQKLVFSGRELARNASRVKDYGVTGGSVLHLVLKLYDP”, the protein production entry is “failed”.

“MSVLSIVTVPDKRLSLCSEEVEKVDQSIRKLVDDMFETMHANQGLGLAAVQVGVHKRILVMNVPEEFEDSEDIENVEDKIEGYELYGGPYCIINPKIVDISQEKVKLKEGCLSVPGYFDYIVRPQRIAVQYLDYNGNECIIKAQGWLARCLQHEIDHLNGTVFLKYLSKFKRDFAIEKVKKKERTDLI”: the protein production entry was “not failed”.
